Test results taken from patent US20200079842A1 (NETRIS PHARMA, published 2020).
Numbering of substitutions follows the chain as printed. Where “and” joins values, the source holds several entries; their conditions need not be identical. Equal values may be shown once.

B1: murine 4C11 (IgG1) antibody (antibody, V domains shown)
VH: QAYLQQSGAELVRPGASVKMSCKASGYTFTSYNMHWVKQTPRQGLEWIGAIYPGNGDTSYNQKFKGKATLTVDKSSSTAYMQLSSLTSEDSAVYFCARGGTGFAYWGQGTLVTVSA
VL: SIVMTQTPKFLLVSAGDRVTITCKASQSVSNDVAWYQQKPGQSPKLLIYYASNRYTGVPDRFTGSGYGTDFTFTISTVQAEDLAVYFCQQDYSSPWTFGGGTKLEIKR
notes: also called NET1-M-mAb; 4C11 murine IgG1
B2: 4C11 Fab (Fab, V domains shown)
VH: B1 VH
VL: SIVMTQTPKFLLVSAGDRVTITCKASQSVSNDVAWYQQKPGQSPKLLIYYASNRYTGVPDRFTGSGYGTDFTFTISTVQAEDLAVYFCQQDYSSPWTFGGGTKLEIK
notes: only the variable domains are tied to it; also called Fab fragment of murine 4C11
B3: 4C11 Fab′2 (other)
VH: B1 VH
VL: B2 VL
notes: only the variable domains are tied to it; also called Fab′2 fragment of murine 4C11
B4: 4C11 murine IgG2a (antibody, V domains shown)
VH: B1 VH
VL: B2 VL
B5: HUM05 (antibody, human IgG1, V domains shown)
VH: QVQLQESGPGLVKPSQTLSLTCTVSGYTFTSYNMHWVRQAPGQGLEWMGAIYPGNGDTSYNQKFKGRVTISVDTSKNQFSLKLSSVTAADTAVYYCARGGTGFAYWGQG
VL: DIQMTQSPSSLSASVGDRVTITCKASQSVSNDVAWYLQKPGQSPQLLIYYASNRYTGVPSRFSGSGSGTDFTFTISSLEAEDAATYYCQQDYSSPWTFGQG
notes: also called humanized 4C11 variant HUM05
B6: HUM04 (antibody, human IgG1, V domains shown)
VH: EVQLVQSGAEVKKPGESLRISCKGSGYTFTSYNMHWVRQATGQGLEWMGAIYPGNGDTSYNQKFKGRFTISRDDSKNTAYLQMNSLKTEDTAVYYCARGGTGFAYWGQG
VL: B5 VL
notes: also called humanized 4C11 variant HUM04
B7: HUM07 (antibody, human IgG1, V domains shown)
VH: QVQLQQSGPGLVKPSQTLSLTCAISGYTFTSYNMHWVRQATGQGLEWMGAIYPGNGDTSYNQKFKGRVTITADKSTSTAYMELSSLRSEDTAVYYCARGGTGFAYWGQG
VL: B5 VL
notes: also called humanized 4C11 variant HUM07
B8: HUM02 (antibody, human IgG1, V domains shown)
VH: B7 VH with V37I, A40P, T41P, Q43K, M48I
VL: B5 VL with Y36F, L37Q, K39R, Q45R, L46R
notes: also called humanized 4C11 variant HUM02
B9: HUM01 (antibody, human IgG1, V domains shown)
VH: QVQLVQSGAEVKKPGASVKVSCKASGYTFTSYNMHWVRQATGQGLEWMGAIYPGNGDTSYNQKFKGRVTITADKSTSTAYMELSSLRSEDTAVYYCARGGTGFAYWGQG
VL: EIVMTQSPATLSVSPGERATLSCKASQSVSNDVAWYQQKPGKAPKLLIYYASNRYTGIPPRFSGSGYGTDFTLTINNIESEDAAYYFCQQDYSSPWTFGQG
notes: also called humanized 4C11 variant HUM01
B10: HUM06 (antibody, human IgG1, V domains shown)
VH: B9 VH
VL: DIQMTQSPSSLSASVGDRVTITCKASQSVSNDVAWYQQKPGQAPRLLIYYASNRYTGIPPRFSGSGYGTDFTLTINNIESEDAAYYFCQQDYSSPWTFGQG
notes: also called humanized 4C11 variant HUM06
B11: HUM09 (antibody, human IgG1, V domains shown)
VH: B9 VH
VL: DIVMTQTPLSLPVTPGEPASISCKASQSVSNDVAWYQQKPGQAPRLLIYYASNRYTGIPPRFSGSGYGTDFTLTINNIESEDAAYYFCQQDYSSPWTFGQG
notes: also called humanized 4C11 variant HUM09
B12: HUM03 (antibody, human IgG1, V domains shown)
VH: QVQLQQSGPGLVKPSQTLSLTCAISGYTFTSYNMHWVRQATGQGLEWMGAIYPGNGDTSYNQKFKGRLTISKDTSKNQVVLTMTNMDPVDTATYYCARGGTGFAYWGQG
VL: B10 VL
notes: also called Humanized 4C11; humanized 4C11 hum03
B13: HUM10 (antibody, human IgG1, V domains shown)
VH: B7 VH with V37I, A40P, T41P, Q43K, M48I
VL: B10 VL
notes: also called humanized 4C11 variant HUM10
B14: HUM08 (antibody, human IgG1, V domains shown)
VH: B12 VH
VL: B5 VL
notes: also called humanized 4C11 variant HUM08

Each binder was assayed against T1, His-tagged Netrin-1 (R&D 6419-N1) (human, UniProt O95631 25-604) (assay: ELISA, coated His-tagged netrin-1, luminescence).
T1 construct: Bought protein; also called adsorbed netrin-1; not shown: His tag
Description: White 96-well microtiter plate (Costar 3912 Corning) was incubated overnight at 4° C. with 100 ng of His-tagged Netrin-1 (R&D 6419-N1) in 100 μL of Phosphate buffer saline (PBS). After three washings with 300 μL of PBS-0.05% TWEEN®-20 (PBS-T), the plate was blocked by addition of 100 μL of PBS-3% BSA and incubated 1 hour at room temperature. After three washings with 300 μL of PBS-T, the plate was incubated with various quantities (10 ng to 1200 ng) of the anti-netrin-1 antibody. After three washings with 300 μL of PBS-T, 100 μL of a relevant secondary antibody conjugated to horse radish peroxidase (e.g. goat anti-human IgG (Fc) Sigma A0170 or goat anti-mouse IgG light chain specific (kappa) Jackson Immunoresearch 115-035-174) diluted 1/10,000 in PBST-3% BSA was added and the plate was incubated 1 hour at room temperature. After three washings with 300 μL of PBS-T, 100 μL of a luminescent substrate of HRP (ECL western blotting substrate, PIERCE) is added. After 5 to 10 minutes, the luminescence was read on a Tecan Infinite F-500 luminometer.
With B1 the EC50 was 0.057 µg/mL and 0.38 nM. For B2, the EC50 was 13 nM and 0.65 µg/mL. For B3, the EC50 was 0.035 µg/mL and 0.35 nM. B4 was tested, and the EC50 was 0.063 µg/mL and 0.42 nM. For B5, the EC50 was 0.151 µg/mL and 1.01 nM. B6 was tested, and the EC50 was 0.198 µg/mL and 1.32 nM. With B7 the EC50 was 0.125 µg/mL and 0.834 nM. B8 was tested, and the EC50 was 0.26 µg/mL and 1.73 nM. For B9, the EC50 was 0.134 µg/mL and 0.894 nM. In the case of B10, the EC50 is reported as 0.139 µg/mL and 0.927 nM. In the case of B11, the EC50 is reported as 0.153 µg/mL and 1.02 nM. For B12, the EC50 was 0.166 µg/mL and 1.11 nM. For B13, the EC50 was 0.211 µg/mL and 1.41 nM. B14 was tested, and the EC50 was 0.134 µg/mL and 0.894 nM.

Each binder was assayed against T2, FLAG-tagged netrin-1 (Adipogen) (human, UniProt O95631 25-604, limits assumed) (assay: competition ELISA: FLAG-netrin-1 binding to coated UNC5B-Fc).
T2 construct: Bought protein; also called FLAG®-tagged Netrin-1 (APOTECH); not shown: FLAG tag
Description: (§1) After three washings with 300 μL of PBS-0.05% TWEEN®-20 (PBS-T), the plate was blocked by addition of 100 μL of PBS-2% BSA and incubated 1 hour at room temperature. After three washings with 300 μL of PBS-T, the plate was incubated for 1 hour at room temperature, with 100 μL of PBS-1% BSA containing 50 ng/mL FLAG®-tagged netrin-1 (Adipogen) and various quantities (0.2 ng to 3000 ng) of the 4C11 antibody. After three washings with 300 μL of PBS-T, 100 μL of an anti-FLAG® M2 monoclonal antibody conjugated to horse radish peroxidase (HRP) (Sigma A8592) diluted 1/5,000 in PBST-1% BSA was added and the plate was incubated 1 hour at room temperature. After three washings with 300 μL of PBS-T, 100 μL of a luminescent substrate of HRP (ECL western blotting substrate, PIERCE) is added. After 5 to 10 minutes, the luminescence was read on a Tecan Infinite F-500 luminometer.
With B1 the IC50 was 0.075 µg/mL and 0.502 nM. For B2, the IC50 was 0.844 µg/mL and 16.9 nM. B3 was tested, and the IC50 was 0.089 µg/mL and 0.89 nM. For B4, the IC50 was 0.085 µg/mL and 0.567 nM. With B5 the IC50 was 0.085 µg/mL and 0.567 nM. In the case of B6, the IC50 is reported as 0.199 µg/mL and 1.33 nM. For B7, the IC50 was 0.089 µg/mL and 0.594 nM. For B8, the IC50 was 0.215 µg/mL and 1.43 nM. B9 was tested, and the IC50 was 0.054 µg/mL and 0.36 nM. For B10, the IC50 was 0.082 µg/mL and 0.547 nM. For B11, the IC50 was 0.071 µg/mL and 0.474 nM. B12 was tested, and the IC50 was 0.065 µg/mL and 0.434 nM. B13 was tested, and the IC50 was 0.11 µg/mL and 0.734 nM. In the case of B14, the IC50 is reported as 0.077 µg/mL and 0.514 nM.

These binders were tested against T3, human netrin-1 (human, UniProt O95631 25-604, limits assumed) (assay: SPR (Biacore T100), 4C11 captured, netrin-1 as analyte, 25° C.).
T3 construct: also called NET1; netrin-I
Description: (§2) Murine 4C11 (IgG1) antibody (SEQ ID NO: 12 and 13) was captured via amine coupled capture molecules. A series with increasing concentrations of netrin-1 was injected. Chip surface with amine coupled capture molecule alone was used as reference control surface for correction of possible buffer-effects or non-specific binding of netrin-I.
(§3) Analyte sample: Classical concentration series were measured at a flow rate of 50 μL/min by consecutive injection of the analyte in 5 or 6 increasing concentrations (c 2-164 nM). Running buffer: 20 mM Hepes pH7.4, 600 mM NaCl, 0.005% TWEEN® 20. The analyte was injected for 3 minutes followed by a dissociation phase of 90 s.
(§4) Kinetic parameters were then calculated by using the usual double referencing (control reference: binding of analyte to capture molecule; Flow Cell: netrin-1 concentration “0” as Blank) and calculation with model ‘titration kinetics 1: 1 binding.
B1 was tested, and the Kd was 13.3 nM and 12.7 nM and the kon was 140000 M⁻¹ s⁻¹.

Each binder was assayed against T3, human netrin-1 (assay: SPR (Biacore T100), 4C11 captured, netrin-1 as analyte, 25° C.; Exp 1).
Description: as §2, §3, §4
With B1 the koff was 0.0018 s⁻¹.

Each binder was assayed against T2, FLAG-tagged netrin-1 (Adipogen) (assay: competition ELISA: FLAG-tagged netrin-1 with rising 4C11 on coated UNC5B-Fc, bound netrin-1 detected with anti-FLAG-HRP, luminescence).
Description: FIG. 2: Inhibition of Netrin-1 binding onto UNC5B-Fc by 4C11. FLAG®-tagged Netrin-1 (APOTECH) in presence of various concentrations of 4C11 were incubated onto 96-well microtiter plate coated with UNC5B-Fc (Netris). Bound Netrin-1 was detected using an anti-FLAG® antibody conjugated with horseradish peroxidase (Sigma) and a chemiluminescent substrate (PIERCE ECL western blotting substrate). The luminescence was read on a Tecan Infinite F-500 luminometer.
as §1
For B1, the “IC50 (read off the curve)” value was roughly 0.6 nM.

Each binder was assayed against T2, FLAG-tagged netrin-1 (Adipogen) (assay: ELISA-type assay, netrin-1 coated on the plate (legend paragraph 28: FLAG-tagged Netrin-1, APOTECH; Example 3: His-tagged Netrin-1, R&D), anti-mouse IgG-HRP, luminescence).
Description: FIG. 1: ELISA binding assay of murine 4C11 to human Netrin-1. Various concentrations of 4C11 were incubated onto 96-well microtiter plate coated with FLAG®-tagged Netrin-1 (APOTECH). Bound 4C11 was detected using a goat anti-mouse IgG conjugated with horseradish peroxidase (Jackson Immunoresearch) and a chemiluminescent substrate (PIERCE ECL western blotting substrate). The luminescent was read on a Tecan Infinite F-500 luminometer.
With B1 the “EC50 (read off the curve)” value was roughly 0.03 µg/mL.
